Experimental data from patent CN117396514A (ELEKTA S R L, dated 2024).
Each block holds one binder with its values, some of them ahead of it.

What was measured:
人MerTK, M2c分化的人巨噬细胞上 [1] = target: T1, 人MerTK, M2c分化的人巨噬细胞上 (human, UniProt Q12866 21-999); assay: cell-based or functional assay
T1 sequence: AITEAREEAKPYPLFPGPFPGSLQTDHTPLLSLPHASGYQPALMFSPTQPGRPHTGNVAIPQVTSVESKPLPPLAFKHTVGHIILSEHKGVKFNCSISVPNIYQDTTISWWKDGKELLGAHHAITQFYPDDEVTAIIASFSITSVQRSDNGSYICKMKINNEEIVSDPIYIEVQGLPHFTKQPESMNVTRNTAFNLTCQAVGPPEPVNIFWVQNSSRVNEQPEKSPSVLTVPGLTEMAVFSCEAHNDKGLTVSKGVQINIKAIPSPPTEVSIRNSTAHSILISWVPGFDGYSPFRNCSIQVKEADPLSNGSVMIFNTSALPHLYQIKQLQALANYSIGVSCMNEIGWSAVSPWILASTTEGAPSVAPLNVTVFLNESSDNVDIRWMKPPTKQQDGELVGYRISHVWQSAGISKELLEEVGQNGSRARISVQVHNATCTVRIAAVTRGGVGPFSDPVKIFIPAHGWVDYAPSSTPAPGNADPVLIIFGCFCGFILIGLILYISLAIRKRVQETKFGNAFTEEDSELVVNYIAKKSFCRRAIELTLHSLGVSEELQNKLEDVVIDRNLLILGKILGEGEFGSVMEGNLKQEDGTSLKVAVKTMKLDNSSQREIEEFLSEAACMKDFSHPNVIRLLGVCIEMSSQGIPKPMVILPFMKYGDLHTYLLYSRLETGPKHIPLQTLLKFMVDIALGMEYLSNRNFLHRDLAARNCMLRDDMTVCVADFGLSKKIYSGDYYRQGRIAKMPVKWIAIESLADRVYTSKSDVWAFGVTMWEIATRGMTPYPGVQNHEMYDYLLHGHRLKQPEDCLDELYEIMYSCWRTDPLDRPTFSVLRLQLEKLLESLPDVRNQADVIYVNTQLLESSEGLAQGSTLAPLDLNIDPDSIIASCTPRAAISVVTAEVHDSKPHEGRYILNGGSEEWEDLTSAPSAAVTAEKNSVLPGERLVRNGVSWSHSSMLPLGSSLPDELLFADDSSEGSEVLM

人MerTK, M2c分化的人巨噬细胞上 [2] = target: T1, 人MerTK, M2c分化的人巨噬细胞上; assay: FACS, Dylight650-conjugated antibody titrated on M2c differentiated human macrophages; Kd from MFI by Prism (EC50-like)

胞葬作用 IC50 (efferocytosis of pHrodo-labelled apoptotic Jurkat cells by M2c human macrophages) (人MerTK, M2c分化的人巨噬细胞上 [1]): ~4.4 nM
B1: 单价(单臂)抗MerTK抗体MTK-33.11 (Fc LALAPS) (antibody, V domains shown)
VH: QVQLVQSGAEVKKPGASVKVSCKASGYTFTSYWMHWVRQAPGQGLEWIGVIDPSDNYINYNQKFQGRVTMTRDTSTSTVYMELSSLRSEDTAVYYCAREAWTRGYFDYWGQGTLVTVSS
VL: DIQMTQSPSSLSASVGDRVTITCQASRSVRNTVAWYQQKPGKAPKLLIYYASNRYTGVPSRFSGSGSGTDFTFTISSLQPEDIATYYCQQDYRSPFTFGQGTKLEIK
modifications: Dylight650 conjugate in the FACS binding assay (site not stated)

胞葬作用 IC50 (efferocytosis of pHrodo-labelled apoptotic Jurkat cells by M2c human macrophages) (人MerTK, M2c分化的人巨噬细胞上 [1]): 37.9 nM | Kd (人MerTK, M2c分化的人巨噬细胞上 [2]): ~78 nM
B2: 单价(单臂)抗MerTK抗体MTK-16.2 (Fc LALAPS) (antibody, V domains shown)
VH: QVQLVQSGSELKKPGASVKVSCKASGYTFTNHGMNWVRQAPGQGLEWMGWINTYTGEPTYADDFKGRFVFSLDTSVSTAYLQISSLKAEDTAVYYCARKGVTAARYFDYWGQGTLVTVSS
VL: DIQMTQSPSSLSASVGDRVTITCRASQNVRTAVAWYQQKPGKAPKRLIYLASNRHTGVPSRFSGSGSGTEFTLTISNLQPEDFATYYCLQHWNYPLTFGGGTKLEIK
modifications: Dylight650 conjugate in the FACS binding assay (site not stated)

胞葬作用 IC50 (efferocytosis of pHrodo-labelled apoptotic Jurkat cells by M2c human macrophages) (人MerTK, M2c分化的人巨噬细胞上 [1]): 0.436 nM | Kd (人MerTK, M2c分化的人巨噬细胞上 [2]): ~52 nM
B3: 二价(全IgG)抗MerTK抗体MTK-16.2 (Fc LALAPS) (antibody, V domains shown)
VH: B2 VH
VL: DIQMTQSPSSLSASVGDRVTITCRASQNVRTAVAWYQQKPGKAPKRLIYLASNRHTGVPSRFSGSGSGTEFTLTISNLQPEDFATYYCLQHWNYPLTFGGGTKLEIKR
modifications: Dylight650 conjugate in the FACS binding assay (site not stated)
